# From US20070167369A1 (published 2007)
# B1: Regenin (other)
# chain: MGTVMDVLKGDNRFSMLVAAIQSAGLTETLNREGVYTVFAPTNEAFRALPPRERSRLLGDAKELANILKYHIGDEILVSGGIGALVRLKSLQGDKLEVSLKNNVVSVNKEPVAEPDIMATNGVVHVITNVLMGTVMDVLKGDNRFSMLVAAIQSAGLTETLNREGVYTVFAPTNEAFRALPPRERSRLLGDAKELANILKYHIGDEILVSGGIGALVRLKSLQGDKLEVSLKNNVVSVNKEPVAEPDIMATNGVVHVITNVLMGTVMDVLKGDNRFSMLVAAIQSAGLTETLNREGVYTVFAPTNEAFRALPPRERSRLLGDAKELANILKYHIGDEILVSGGIGALVRLKSLQGDKLEVSLKNNVVSVNKEPVAEPDIMATNGVVHVITNVLMGTVMDVLKGDNRFSMLVAAIQSAGLTETLNREGVYTVFAPTNEAFRALPPRERSRLLGDAKELANILKYHIGDEILVSGGIGALVRLKSLQGDKLEVSLKNNVVSVNKEPVAEPDIMATNGVVHVITNVL
# Molecular target: HUVECs
# Assay: cell binding (Scatchard, Abs. 490 nm)
binder,measurement,value
B1,Kd,1000 nM
